Data: US6515103B1 (priority 1996, dated 2003)
Values joined by “and” are separate entries in the source; they are usually repeats but may differ in a detail not shown here. Identical values can stand only once. Like-named read-outs stand apart in the source and are kept apart here.

What was measured:
[1] = test system: Frings audiogenic seizure-susceptible mice; conditions: for P.I. / PI: Frings audiogenic seizure-susceptible; for P.I. / ED50 / PI / ED50 nmol: mouse, in vivo
[2] = test system: Frings audiogenic seizure-susceptible mice; conditions: mouse, in vivo
NMDA receptor = assay: spermine-stimulated [3H]MK-801 binding assay, inhibition
[3] = Frings audiogenic seizure-susceptible

| Compound | IC50 (NMDA receptor) [nM] | further results |
| --- | --- | --- |
| NC(=O)OCC(COC(N)=O)c1ccccc1 [Felbamate, reference compound] |  | protected (number/tested) printed in ED50 column ([1]; 30 min): 5/8 protected at 525 and 4/8 protected at 630; TD50 nmol [2]: no marked toxicity |
| CC(C(O)c1ccc(O)cc1)N1CCC(Cc2ccccc2)CC1 (stereo not shown) [Ifenprodil, reference compound] |  | P.I. [1]: <1; ED50 [1]: ˜25 nmols; TD50 [2, 3]: <25 nmols |
| Nc1nnc(-c2cccc(Cl)c2Cl)c(N)n1 [Lamotrigine, reference compound] |  | PI [1]: >2.0; ED50 nmol [1]: 146 nmol; TD50 nmol [2, 3]: >290 nmol |
| C[C@]12N[C@H](Cc3ccccc31)c1ccccc12 [MK801, dizocilpine, reference compound] |  | P.I. [1]: 1.9; ED50 [1]: 0.641 nmols; TD50 [2, 3]: 1.227 nmols |
| CCC1(c2ccccc2)C(=O)NC(=O)NC1=O [Phenobarbitol, reference compound] |  | PI [1]: 0.5; ED50 nmol [1]: 145 nmol; TD50 nmol [2, 3]: 68.8 nmol |
| CC1(C)O[C@@H]2[C@@H](CO[C@@]3(COS(N)(=O)=O)OC(C)(C)O[C@@H]23)O1 [Topiramate, reference compound] |  | ED50 nmol [1]: >150 nmol; TD50 nmol [2]: no marked toxicity |
| CCCC(CCC)C(=O)O [Valproic Acid, reference compound] |  | P.I. [1]: 1.1-2.2; PI [1]: 1.1-2.2; ED50 nmol [1]: 566 nmol; ED50 [1]: 5644 nmols; TD50 [2, 3]: >6000 <12,000 |
| (A^7,10)1-12 Con G (peptide) | 300 |  |
| (A^7,10)1-13 Con G (peptide) | 253 |  |
| (A^7,10,14)1-14 Con G (peptide) | 232 |  |
| (A^7,10,14)1-15 Con G (peptide) | 34 |  |
| (A^7,10,14)1-16 Con G (peptide) | 37 |  |
| A^3 Con G (peptide) | 9100 |  |
| A^4 Con G (peptide) | > 20000 |  |
| A^7,10,14 Con G (peptide) | 88 |  |
| A^7,Y^10 Con G (peptide) | 79 |  |

| Compound | IC50 (NMDA receptor) [nM] | further results |
| --- | --- | --- |
| A^10 Con G (peptide) | 1100 |  |
| A^14 Con G (peptide) | 160 |  |
| E^4 Con G (peptide) | > 20000 |  |
| E^7,10,14 Con G (peptide) | > 20000 |  |
| S^3 Con G (peptide) | 3600 |  |
| S^4 Con G (peptide) | > 20000 |  |
| S^7 Con G (peptide) | 250 |  |
| S^10 Con G (peptide) | 1800 |  |
| S^14 Con G (peptide) | 160 |  |
| Sp^3 Con G (peptide) | 900 |  |
| Sp^4 Con G (peptide) | > 20000 |  |
| Sp^7 Con G (peptide) | 1200 |  |
| Sp^10 Con G (peptide) | 560 |  |
| Sp^14 Con G (peptide) | 1590 |  |
| Y^3 Con G (peptide) | 960 |  |
| Y^7 Con G (peptide) | 960 |  |
